The sequences below were run on Escherichia coli TOP10 (assay: shrunken log2 fold change of peptide-encoding DNA abundance (4.5 h post-induction vs induction); higher = less antimicrobial activity (less host growth inhibition)). Conditions: time post-induction: 4.5 h; library: site-saturation at positions 5, 18, 19, 20.
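Further: peptides expressed intracellularly from a pBAD plasmid library in pooled LB shake-flask culture, induced with 0.3% L-arabinose, DNA abundance read by NGS, three biological replicates, DESeq2 with apeglm shrinkage.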

Sequence | shrunken log2 fold change
RRIRQRPPRLPRPRPRPCMNPRP | -0.0959
RRIRQRPPRLPRPRPRPCLGPRP | 0.172
RRIRIRPPRLPRPRPRPHDAPRP | -0.175
RRIRWRPPRLPRPRPRPAWPPRP | 0.558
RRIRRRPPRLPRPRPRPKNEPRP | 0.294
RRIRFRPPRLPRPRPRPYFTPRP | -1.09
RRIRWRPPRLPRPRPRPNHQPRP | -0.342
RRIRTRPPRLPRPRPRPRTTPRP | 0.419
RRIRYRPPRLPRPRPRPVILPRP | -0.0444
RRIRGRPPRLPRPRPRPAMCPRP | 0.465
RRIRGRPPRLPRPRPRPTKPPRP | 0.0691
RRIRDRPPRLPRPRPRPGQIPRP | 0.0221
RRIRRRPPRLPRPRPRPENVPRP | -0.0722
RRIRMRPPRLPRPRPRPGRDPRP | 1.4
RRIRDRPPRLPRPRPRPVARPRP | 0.56
RRIRARPPRLPRPRPRPYFCPRP | -0.346
RRIRWRPPRLPRPRPRPVIMPRP | -0.273
RRIRGRPPRLPRPRPRPISFPRP | 0.0122
RRIRQRPPRLPRPRPRPHGKPRP | -0.352
RRIRKRPPRLPRPRPRPIAQPRP | 0.208
RRIRYRPPRLPRPRPRPVATPRP | -0.281
RRIRERPPRLPRPRPRPGMSPRP | 0.0438

Sequence | shrunken log2 fold change
RRIRARPPRLPRPRPRPWRTPRP | 0.14
RRIRKRPPRLPRPRPRPRYPPRP | 0.122
RRIRMRPPRLPRPRPRPTMCPRP | 0.674
RRIRTRPPRLPRPRPRPYWWPRP | -0.554
RRIRARPPRLPRPRPRPDWMPRP | 0.383
RRIRFRPPRLPRPRPRPNKPPRP | -0.00705
RRIRERPPRLPRPRPRPIRHPRP | -0.397
RRIRYRPPRLPRPRPRPAVVPRP | -0.149
RRIRDRPPRLPRPRPRPDNSPRP | 0.0428
RRIRGRPPRLPRPRPRPALQPRP | 0.333
RRIRTRPPRLPRPRPRPPPGPRP | 0.668
RRIRIRPPRLPRPRPRPHYNPRP | -1.03
RRIRVRPPRLPRPRPRPYDAPRP | -0.294
RRIRFRPPRLPRPRPRPNATPRP | 0.0167
RRIRSRPPRLPRPRPRPRQLPRP | 0.0648
RRIRPRPPRLPRPRPRPNCGPRP | -0.0429
RRIRHRPPRLPRPRPRPSHGPRP | -0.137
RRIRARPPRLPRPRPRPEGSPRP | 0.805
RRIRTRPPRLPRPRPRPAIFPRP | -0.0366
RRIRRRPPRLPRPRPRPGNIPRP | -0.0618
RRIRVRPPRLPRPRPRPYKIPRP | -0.726
RRIRCRPPRLPRPRPRPPDNPRP | 0.0386

Sequence | shrunken log2 fold change
RRIRRRPPRLPRPRPRPIHFPRP | -0.174
RRIRPRPPRLPRPRPRPGRYPRP | 0.37
RRIRWRPPRLPRPRPRPTQFPRP | 0.0858
RRIRWRPPRLPRPRPRPNSWPRP | -0.0727
RRIRPRPPRLPRPRPRPDIKPRP | -0.317
RRIRIRPPRLPRPRPRPSDMPRP | -0.309
RRIRPRPPRLPRPRPRPKTTPRP | 0.507
RRIRCRPPRLPRPRPRPTHLPRP | 0.232
RRIRQRPPRLPRPRPRPWWKPRP | -0.00542
RRIRMRPPRLPRPRPRPLLSPRP | 0.17
RRIRIRPPRLPRPRPRPWAQPRP | 0.0697
RRIRQRPPRLPRPRPRPHAFPRP | -0.0738
RRIRMRPPRLPRPRPRPPHAPRP | 1.65
RRIRARPPRLPRPRPRPRRFPRP | 0.603
RRIRFRPPRLPRPRPRPTLMPRP | 0.0425
RRIRIRPPRLPRPRPRPDMDPRP | -0.122
RRIRARPPRLPRPRPRPFMFPRP | 0.189
RRIRERPPRLPRPRPRPPHDPRP | 0.0906
RRIRTRPPRLPRPRPRPPVVPRP | -0.0715
RRIRRRPPRLPRPRPRPHNVPRP | -0.916
RRIRMRPPRLPRPRPRPTMAPRP | 1.03
RRIRQRPPRLPRPRPRPFSDPRP | -0.00196

Sequence | shrunken log2 fold change
RRIRMRPPRLPRPRPRPVWVPRP | 0.0789
RRIRSRPPRLPRPRPRPIENPRP | -0.00961
RRIRCRPPRLPRPRPRPSNFPRP | -0.627
RRIRERPPRLPRPRPRPNRVPRP | -0.00226
RRIRARPPRLPRPRPRPGEGPRP | 1.02
RRIRRRPPRLPRPRPRPGPVPRP | 0.332
RRIRGRPPRLPRPRPRPKTYPRP | 0.23
RRIRHRPPRLPRPRPRPAIIPRP | -0.113
RRIRRRPPRLPRPRPRPYKHPRP | -0.89
RRIRTRPPRLPRPRPRPLNEPRP | -0.0228
RRIRVRPPRLPRPRPRPMGNPRP | -0.0915
RRIRFRPPRLPRPRPRPDPGPRP | -0.162
RRIRIRPPRLPRPRPRPCCYPRP | -0.495
RRIRSRPPRLPRPRPRPRVHPRP | 0.109
RRIRARPPRLPRPRPRPRPHPRP | 0.513
RRIRWRPPRLPRPRPRPHTTPRP | 0.0145
RRIRTRPPRLPRPRPRPRIKPRP | -0.208
RRIRLRPPRLPRPRPRPAADPRP | 0.832
RRIRKRPPRLPRPRPRPMMSPRP | -0.00973
RRIRKRPPRLPRPRPRPKSRPRP | 0.296
RRIRLRPPRLPRPRPRPWRWPRP | 0.0385
RRIRWRPPRLPRPRPRPPARPRP | 0.726

Sequence | shrunken log2 fold change
RRIRQRPPRLPRPRPRPESCPRP | -0.0209
RRIRVRPPRLPRPRPRPVVVPRP | -0.194
RRIRIRPPRLPRPRPRPDWWPRP | -0.00879
RRIRVRPPRLPRPRPRPQNVPRP | -0.51
RRIRGRPPRLPRPRPRPWVMPRP | 0.0476
RRIRMRPPRLPRPRPRPQQGPRP | -0.121
RRIRMRPPRLPRPRPRPYAHPRP | 0.013
RRIRCRPPRLPRPRPRPFYIPRP | -0.58
RRIRMRPPRLPRPRPRPDDTPRP | 2.17
RRIRFRPPRLPRPRPRPDYWPRP | -0.142
RRIRGRPPRLPRPRPRPFERPRP | -0.012
RRIRERPPRLPRPRPRPRMKPRP | -0.243
RRIRSRPPRLPRPRPRPDEEPRP | 0.895
RRIRYRPPRLPRPRPRPSPCPRP | -0.8
RRIRIRPPRLPRPRPRPTHGPRP | 0.0479
RRIRQRPPRLPRPRPRPLSSPRP | -0.055
RRIRDRPPRLPRPRPRPNRIPRP | -0.152
RRIRGRPPRLPRPRPRPWCGPRP | 0.58
RRIRQRPPRLPRPRPRPMPPPRP | 0.517
RRIRGRPPRLPRPRPRPVHHPRP | -0.0799
RRIRKRPPRLPRPRPRPHDPPRP | 0.282
